Measurements from article PMC8875425 (ACS Central Science, 2022).
Square brackets hold non-standard residues; d marks the D form. pS = N[C@@H](COP(=O)(O)O)C(=O)O

Tests used:
[1] = biological target: KIX domain of CREB-binding protein (CBP) (UniProt P45481 588-672); assay: fluorescence polarisation
[2] = biological target: MBP-KIX-apoferritin construct 3 (24-mer double-shell complex) (not stated | mouse); assay: fluorescence polarisation

Sequence of KIX domain of CREB-binding protein (CBP) (P45481 588-672): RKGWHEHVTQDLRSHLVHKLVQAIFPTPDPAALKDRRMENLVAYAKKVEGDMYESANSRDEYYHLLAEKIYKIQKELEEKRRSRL

| Binder | IC50 [1] | IC50 [2] |
| --- | --- | --- |
| Ac-LSRRP[pS]YRKILNDLSSDAP-NH2 [peptide 7] | 50 µM | 311 µM |
| Ac-LKRRP[pS]YRKILNDLSSDAP-NH2 [peptide 7′] | 24.2 µM | 170 µM |
